{"source": "patent US8993229", "key": {"[1]": {"biological_target": "porcine gastric mucin coupled to magnetic beads (mucin from porcine stomach, type III, Sigma) (porcine)", "experiment": "PGM-MB pull-down, qRT-PCR; 0 J/cm^2 in the UV series"}, "[2]": {"biological_target": "porcine gastric mucin coupled to magnetic beads (mucin from porcine stomach, type III, Sigma) (porcine)", "experiment": "PGM-MB pull-down, qRT-PCR; untreated virus in the 300-600 MPa series"}, "[3]": {"biological_target": "porcine gastric mucin coupled to magnetic beads (mucin from porcine stomach, type III, Sigma) (porcine)", "experiment": "PGM-MB pull-down, qRT-PCR; untreated control in the initial pressure trials"}, "[4]": {"biological_target": "porcine gastric mucin coupled to magnetic beads (mucin from porcine stomach, type III, Sigma) (porcine)", "experiment": "PGM-MB pull-down, qRT-PCR; untreated virus (0 seconds) in the thermal series"}, "[5]": {"biological_target": "porcine gastric mucin coupled to magnetic beads (mucin from porcine stomach, type III, Sigma) (porcine)", "experiment": "PGM-MB pull-down, qRT-PCR; 0 J/cm^2; printed as 'bound' but the context (84% bound) shows it is the unbound fraction"}, "[6]": {"biological_target": "porcine gastric mucin coupled to magnetic beads (mucin from porcine stomach, type III, Sigma) (porcine)", "experiment": "PGM-MB pull-down, qRT-PCR; after 1 J/cm^2 UV"}, "[7]": {"biological_target": "porcine gastric mucin coupled to magnetic beads (mucin from porcine stomach, type III, Sigma) (porcine)", "experiment": "PGM-MB pull-down, qRT-PCR; after 0.5 J/cm^2 UV"}, "[8]": {"biological_target": "porcine gastric mucin coupled to magnetic beads (mucin from porcine stomach, type III, Sigma) (porcine)", "experiment": "PGM-MB pull-down, qRT-PCR; after 0.25 J/cm^2 UV"}, "[9]": {"biological_target": "porcine gastric mucin coupled to magnetic beads (mucin from porcine stomach, type III, Sigma) (porcine)", "experiment": "PGM-MB pull-down, qRT-PCR; after 600 MPa, 5 minutes, 5 C"}, "[10]": {"biological_target": "porcine gastric mucin coupled to magnetic beads (mucin from porcine stomach, type III, Sigma) (porcine)", "experiment": "PGM-MB pull-down, qRT-PCR of the bound fraction; after 500 and 600 MPa, 5 minutes, 5 C"}, "[11]": {"biological_target": "porcine gastric mucin coupled to magnetic beads (mucin from porcine stomach, type III, Sigma) (porcine)", "experiment": "PGM-MB pull-down, qRT-PCR; after about 60 seconds in the heat block, about 64 C"}}}
{"substance": "GI.1 Norwalk strain norovirus (untreated virions from stool stock, patient No. 505A-05) (from UniProt Q83884 1-530)", "values": [{"measurement": "percent bound", "setting": "[1]", "result": 84, "unit": "%"}, {"measurement": "percent bound", "setting": "[2]", "result": 82, "unit": "%"}, {"measurement": "percent bound", "setting": "[3]", "result": 71, "unit": "%"}, {"measurement": "percent bound", "setting": "[4]", "result": 68, "unit": "%"}, {"measurement": "percent unbound", "setting": "[4]", "result": 32, "unit": "%"}, {"measurement": "percent unbound", "setting": "[5]", "result": 16, "unit": "%"}]}
{"substance": "GI.1 norovirus after UV treatment (254 nm, up to 2 J/cm^2) (from UniProt Q83884 1-530)", "values": [{"measurement": "percent bound", "setting": "[6]", "result": 4, "unit": "%"}, {"measurement": "percent bound", "setting": "[7]", "result": 33, "unit": "%"}, {"measurement": "percent unbound", "setting": "[7]", "result": 67, "unit": "%"}, {"measurement": "percent unbound", "setting": "[8]", "result": 40, "unit": "%"}]}
{"substance": "GI.1 norovirus after high pressure treatment (300-600 MPa, 5 minutes, 5 C) (from UniProt Q83884 1-530)", "values": [{"measurement": "percent bound", "setting": "[9]", "result": 0.3, "unit": "%"}, {"measurement": "log10 reduction of qRT-PCR detectable norovirus RNA after binding to PGM-MBs", "setting": "[10]", "result": "> 4.7"}]}
{"substance": "GI.1 norovirus after thermal treatment (80 C heat block, 0-600 seconds) (from UniProt Q83884 1-530)", "values": [{"measurement": "percent bound", "setting": "[11]", "result": 6, "unit": "%"}]}
{"substance": "GII.4 norovirus (untreated virions, stock provided by the CDC)", "values": [{"measurement": "percent bound", "setting": "[3]", "result": 69, "unit": "%"}]}
{"substance": "GII.4 norovirus after high pressure treatment (600 MPa, 5 minutes, 5 C)", "values": [{"measurement": "percent bound", "setting": "[9]", "result": 4, "unit": "%"}]}
